Data published in the RNAGym collection of RNA variant scans (doi:10.1093/molbev/msab373).

B1: Azoarcus group I ribozyme (parent)
chain: GUGCCUUGCGCCGGGAAACCACGCAAGGGAUGGUGUCAAAUUCGGCGAAACCUAAGCGCCCGCCCGGGCGUAUGGCAACGCCGAGCCAAGCUUCGGCGCCUGCGCCGAUGAAGGUGUAGAGACUAGACGGCACCCACCUAAGGCAAACGCUAUGGUGAAGGCAUAGUCCAGGGAGUGGCGAAAGUCACACAAACCGG

Variants of: B1
Experiment: reverse-splicing fitness (ratio to wild type); higher = more active; in vitro selection; Mg2+ level not given
Outline: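 An in vitro group I ribozyme library with randomized positions was T7-transcribed and gel-purified. In triplicate, 10 pmol RNA in EPPS pH 7.5 was reacted with 50 pmoles of a 30-nt RNA substrate for 1 h at 37 °C across several added MgCl2 levels (1–48 mM), then stopped with EDTA. Products were reverse transcribed from a substrate-complementary primer, PCR-amplified and sequenced (HiSeq 4000). Fitness is a variant's read proportion after selection over that before, normalised to wild type.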

**Q.** With C82A A120C A145G C150A C169A as the variant, how does the reverse-splicing fitness read?
**A.** 0.0111

**Q.** With C82A A120C A145G C150A C169U as the variant, how does the reverse-splicing fitness read?
**A.** 0.0123

**Q.** With C82A A120C A145G C150A C169G as the variant, how does the reverse-splicing fitness read?
**A.** 0.00977

**Q.** For C82A A120C A145U C150A C169G U176C, which reverse-splicing fitness is on record?
**A.** 0.0221

**Q.** For C82A A120C A145U C150A C169G U176G, which reverse-splicing fitness is on record?
**A.** 0.00546

**Q.** With C82A A120C A145U C150A C169G U176A as the variant, how does the reverse-splicing fitness read?
**A.** 0.0165

**Q.** For C82A A111U C150U C169G U176C, which reverse-splicing fitness is on record?
**A.** 0.0182

**Q.** For C82A A111U C150U C169G U176A, which reverse-splicing fitness is on record?
**A.** 0.0151

**Q.** For C82A A111U C150U C169G U176G, which reverse-splicing fitness is on record?
**A.** 0.00649

**Q.** With C82A A120C A145C C150A C169U U176A as the variant, how does the reverse-splicing fitness read?
**A.** 0.0144

**Q.** For C82A A120C A145C C150A C169U U176G, which reverse-splicing fitness is on record?
**A.** 0.00481

**Q.** For C82A A120C A145C C150A C169U U176C, which reverse-splicing fitness is on record?
**A.** 0.0111

**Q.** Which reverse-splicing fitness does the source give for C82A A111U A145G U176C here?
**A.** 0.151

**Q.** For C82A A111U A145G U176A, which reverse-splicing fitness is on record?
**A.** 0.0978

**Q.** With C82A A111U A145G U176G as the variant, how does the reverse-splicing fitness read?
**A.** 0.0224

**Q.** Which reverse-splicing fitness does the source give for C82A A120C A145G C169G U176A here?
**A.** 0.0237

**Q.** For C82A A120C A145G C169G U176C, which reverse-splicing fitness is on record?
**A.** 0.0316

**Q.** For C82A A120C A145G C169G U176G, which reverse-splicing fitness is on record?
**A.** 0.0041

**Q.** For C82A A111U A145U C150A C169A U176G, which reverse-splicing fitness is on record?
**A.** 0.00765

**Q.** Which reverse-splicing fitness does the source give for C82A A111U A145U C150A C169A U176C here?
**A.** 0.0138

**Q.** Which reverse-splicing fitness does the source give for C82A A111U A145U C150A C169A U176A here?
**A.** 0.0158

**Q.** For C82A A120C A145U C150G U176G, which reverse-splicing fitness is on record?
**A.** 0.00376

**Q.** With C82A A120C A145U C150G U176C as the variant, how does the reverse-splicing fitness read?
**A.** 0.0141

**Q.** With C82A A120C A145U C150G U176A as the variant, how does the reverse-splicing fitness read?
**A.** 0.00792

**Q.** Which reverse-splicing fitness does the source give for C82A A111U C150U C169U U176C here?
**A.** 0.0146

**Q.** Which reverse-splicing fitness does the source give for C82A A111U C150U C169U U176A here?
**A.** 0.0146

**Q.** Which reverse-splicing fitness does the source give for C82A A111U C150U C169U U176G here?
**A.** 0.00671

**Q.** With C82A A120C A145G C150A as the variant, how does the reverse-splicing fitness read?
**A.** 0.0245

**Q.** With C82A A120C A145G C150G as the variant, how does the reverse-splicing fitness read?
**A.** 0.0213

**Q.** For C82A A120C A145G C150U, which reverse-splicing fitness is on record?
**A.** 0.107

**Q.** With C82A A111U A145U C150U as the variant, how does the reverse-splicing fitness read?
**A.** 0.181

**Q.** Which reverse-splicing fitness does the source give for C82A A111U A145U C150A here?
**A.** 0.0253

**Q.** Which reverse-splicing fitness does the source give for C82A A111U A145U C150G here?
**A.** 0.0256

**Q.** For C82A A120C A145G C150U C169G U176A, which reverse-splicing fitness is on record?
**A.** 0.0144

**Q.** With C82A A120C A145G C150U C169G U176G as the variant, how does the reverse-splicing fitness read?
**A.** 0.00573

**Q.** For C82A A120C A145G C150U C169G U176C, which reverse-splicing fitness is on record?
**A.** 0.0202

**Q.** Which reverse-splicing fitness does the source give for C82A A120C A145C C150U C169A U176C here?
**A.** 0.00786

**Q.** With C82A A120C A145C C150U C169A U176G as the variant, how does the reverse-splicing fitness read?
**A.** 0.00541

**Q.** Which reverse-splicing fitness does the source give for C82A A120C A145C C150U C169A U176A here?
**A.** 0.0161

**Q.** Which reverse-splicing fitness does the source give for C82A A120C A145C C169U U176A here?
**A.** 0.0135

**Q.** With C82A A120C A145C C169U U176C as the variant, how does the reverse-splicing fitness read?
**A.** 0.0127

**Q.** Which reverse-splicing fitness does the source give for C82A A120C A145C C169U U176G here?
**A.** 0.00354

**Q.** With C82A A111U A145U C150A U176G as the variant, how does the reverse-splicing fitness read?
**A.** 0.00989

**Q.** Which reverse-splicing fitness does the source give for C82A A111U A145U C150A U176C here?
**A.** 0.0251

**Q.** With C82A A111U A145U C150A U176A as the variant, how does the reverse-splicing fitness read?
**A.** 0.018

**Q.** For C82A A111U A145G C150G U176C, which reverse-splicing fitness is on record?
**A.** 0.0188

**Q.** With C82A A111U A145G C150G U176A as the variant, how does the reverse-splicing fitness read?
**A.** 0.00963

**Q.** For C82A A111U A145G C150G U176G, which reverse-splicing fitness is on record?
**A.** 0.00688

**Q.** With C82A A120C A145U C150U C169G U176G as the variant, how does the reverse-splicing fitness read?
**A.** 0.00507

**Q.** With C82A A120C A145U C150U C169G U176A as the variant, how does the reverse-splicing fitness read?
**A.** 0.0129

**Q.** Which reverse-splicing fitness does the source give for C82A A120C A145U C150U C169G U176C here?
**A.** 0.0198

**Q.** With C82A A120C A145U C150A C169A U176A as the variant, how does the reverse-splicing fitness read?
**A.** 0.0198

**Q.** With C82A A120C A145U C150A C169A U176G as the variant, how does the reverse-splicing fitness read?
**A.** 0.00601

**Q.** With C82A A120C A145U C150A C169A U176C as the variant, how does the reverse-splicing fitness read?
**A.** 0.0156

**Q.** For C82A A111U C169A U176G, which reverse-splicing fitness is on record?
**A.** 0.00595

**Q.** For C82A A111U C169A U176C, which reverse-splicing fitness is on record?
**A.** 0.0202

**Q.** For C82A A111U C169A U176A, which reverse-splicing fitness is on record?
**A.** 0.0172

**Q.** For C82A A111U A145G C150U C169G U176C, which reverse-splicing fitness is on record?
**A.** 0.0194

**Q.** With C82A A111U A145G C150U C169G U176G as the variant, how does the reverse-splicing fitness read?
**A.** 0.00676

**Q.** Which reverse-splicing fitness does the source give for C82A A111U A145G C150U C169G U176A here?
**A.** 0.0134

**Q.** With C82A A120C A145C C150A C169G as the variant, how does the reverse-splicing fitness read?
**A.** 0.0078

**Q.** For C82A A120C A145C C150A C169A, which reverse-splicing fitness is on record?
**A.** 0.00995

**Q.** Which reverse-splicing fitness does the source give for C82A A120C A145C C150A C169U here?
**A.** 0.00877

**Q.** For C82A A120C A145C C150U C169U U176C, which reverse-splicing fitness is on record?
**A.** 0.00988

**Q.** With C82A A120C A145C C150U C169U U176G as the variant, how does the reverse-splicing fitness read?
**A.** 0.00452

**Q.** For C82A A120C A145C C150U C169U U176A, which reverse-splicing fitness is on record?
**A.** 0.0127

**Q.** For C82A A111U C150U C169A, which reverse-splicing fitness is on record?
**A.** 0.0102

**Q.** Which reverse-splicing fitness does the source give for C82A A111U C150U C169U here?
**A.** 0.0124

**Q.** Which reverse-splicing fitness does the source give for C82A A111U C150U C169G here?
**A.** 0.0102

**Q.** Which reverse-splicing fitness does the source give for C82A A111U A145G C169A U176G here?
**A.** 0.00574

**Q.** For C82A A111U A145G C169A U176A, which reverse-splicing fitness is on record?
**A.** 0.0221

**Q.** With C82A A111U A145G C169A U176C as the variant, how does the reverse-splicing fitness read?
**A.** 0.0292

**Q.** With C82A A111U A145U C150G C169G U176C as the variant, how does the reverse-splicing fitness read?
**A.** 0.00625

**Q.** For C82A A111U A145U C150G C169G U176A, which reverse-splicing fitness is on record?
**A.** 0.00742

**Q.** For C82A A111U A145U C150G C169G U176G, which reverse-splicing fitness is on record?
**A.** 0.00651

**Q.** Which reverse-splicing fitness does the source give for C82A A111U C150U C169A U176C here?
**A.** 0.015

**Q.** For C82A A111U C150U C169A U176G, which reverse-splicing fitness is on record?
**A.** 0.00786

**Q.** Which reverse-splicing fitness does the source give for C82A A111U C150U C169A U176A here?
**A.** 0.0158

**Q.** For C82A A120C A145C C169A U176G, which reverse-splicing fitness is on record?
**A.** 0.00403

**Q.** For C82A A120C A145C C169A U176A, which reverse-splicing fitness is on record?
**A.** 0.015

**Q.** With C82A A120C A145C C169A U176C as the variant, how does the reverse-splicing fitness read?
**A.** 0.00953

**Q.** For C82A A120C A145U C150G C169U U176A, which reverse-splicing fitness is on record?
**A.** 0.00709

**Q.** Which reverse-splicing fitness does the source give for C82A A120C A145U C150G C169U U176G here?
**A.** 0.00519
